Assay results: patent US20030068675, “Position dependent recognition of GNN nucleotide triplets by zinc fingers” (published 2003)

Columns and labels:
Test in all cases: EMSA
Conditions in all cases: tags: MBP fusion
ZFP SBS#1233 = target: T1, ZFP SBS#1233 (synthetic)
T1 chain: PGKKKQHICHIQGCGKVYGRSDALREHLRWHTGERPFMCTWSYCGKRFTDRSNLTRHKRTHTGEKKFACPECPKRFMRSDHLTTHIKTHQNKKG
Method in brief: (§1)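 Purified ZFP was titrated against labeled double-stranded target (1 nM or lower, at least 10-fold below expected Kd) carrying the natural binding site with flanks. Binding buffer was 10 mM Tris pH 7.5, 100 mM KCl, 1 mM MgCl2, 0.1 mM ZnCl2, 5 mM DTT, 10% glycerol, 0.02% BSA, with equilibration for at least 45 min. Bound and free target were separated on a 10% polyacrylamide gel.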

ZFP SBS#1232 = target: T2, ZFP SBS#1232 (synthetic)
T2 chain: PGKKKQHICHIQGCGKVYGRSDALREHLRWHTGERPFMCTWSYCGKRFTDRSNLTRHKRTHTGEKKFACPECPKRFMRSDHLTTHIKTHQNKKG
Method in brief: as §1

ZFP SBS#1243 = target: T3, ZFP SBS#1243 (synthetic)
T3 chain: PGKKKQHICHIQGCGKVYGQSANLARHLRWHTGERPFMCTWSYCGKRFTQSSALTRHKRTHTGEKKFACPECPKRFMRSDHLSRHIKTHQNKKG
Method in brief: as §1

ZFP SBS#1242 = target: T4, ZFP SBS#1242 (synthetic)
T4 chain: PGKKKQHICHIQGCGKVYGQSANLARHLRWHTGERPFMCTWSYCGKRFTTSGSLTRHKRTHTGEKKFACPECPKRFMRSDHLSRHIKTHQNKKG
Method in brief: as §1

ZFP SBS#1215 = ZFP SBS#1215 (synthetic, UniProt P08047)
Method in brief: as §1

ZFP SBS#937 = ZFP SBS#937 (synthetic)
Method in brief: as §1

ZFP SBS#938 = ZFP SBS#938 (synthetic, UniProt P08047)
Method in brief: as §1

ZFP SBS#1140 = ZFP SBS#1140 (synthetic)
Method in brief: as §1

ZFP SBS#1229 = target: T5, ZFP SBS#1229 (synthetic)
T5 chain: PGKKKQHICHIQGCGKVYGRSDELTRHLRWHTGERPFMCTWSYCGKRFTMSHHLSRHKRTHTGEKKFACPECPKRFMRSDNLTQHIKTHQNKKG
Method in brief: as §1

ZFP SBS#1101 = target: T6, ZFP SBS#1101 (synthetic)
T6 chain: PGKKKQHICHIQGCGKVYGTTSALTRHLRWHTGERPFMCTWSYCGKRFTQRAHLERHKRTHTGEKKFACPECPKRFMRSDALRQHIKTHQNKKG
Method in brief: as §1

ZFP SBS#1214 = target: T7, ZFP SBS#1214 (synthetic)
T7 chain: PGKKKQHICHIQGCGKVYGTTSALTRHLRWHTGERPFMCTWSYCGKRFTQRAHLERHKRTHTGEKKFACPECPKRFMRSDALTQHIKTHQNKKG
Method in brief: as §1

ZFP SBS#1218 = ZFP SBS#1218 (synthetic)
Method in brief: as §1

ZFP SBS#1139 = target: T8, ZFP SBS#1139 (synthetic)
T8 chain: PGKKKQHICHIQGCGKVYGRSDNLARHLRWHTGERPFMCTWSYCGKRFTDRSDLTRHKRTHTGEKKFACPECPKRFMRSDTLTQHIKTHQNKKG
Method in brief: as §1

ZFP SBS#1228 = target: T9, ZFP SBS#1228 (synthetic)
T9 chain: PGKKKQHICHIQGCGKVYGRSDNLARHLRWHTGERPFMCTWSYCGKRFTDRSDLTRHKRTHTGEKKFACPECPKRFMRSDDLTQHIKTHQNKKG
Method in brief: as §1

ZFP SBS#488 = target: T10, ZFP SBS#488 (synthetic)
T10 chain: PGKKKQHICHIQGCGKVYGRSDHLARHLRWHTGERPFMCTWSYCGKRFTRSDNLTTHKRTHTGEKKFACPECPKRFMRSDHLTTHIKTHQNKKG
Method in brief: as §1

ZFP SBS#1141 = target: T11, ZFP SBS#1141 (synthetic)
T11 chain: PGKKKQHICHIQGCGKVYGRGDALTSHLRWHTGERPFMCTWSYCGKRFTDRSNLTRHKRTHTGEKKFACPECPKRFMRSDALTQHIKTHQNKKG
Method in brief: as §1

ZFP SBS#1223 = target: T12, ZFP SBS#1223 (synthetic)
T12 chain: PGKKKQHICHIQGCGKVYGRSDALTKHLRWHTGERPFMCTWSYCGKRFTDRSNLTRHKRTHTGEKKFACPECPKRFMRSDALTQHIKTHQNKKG
Method in brief: as §1

ZFP SBS#1224 = target: T13, ZFP SBS#1224 (synthetic)
T13 chain: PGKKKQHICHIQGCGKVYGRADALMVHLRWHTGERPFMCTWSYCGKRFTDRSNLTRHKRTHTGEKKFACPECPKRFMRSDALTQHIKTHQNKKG
Method in brief: as §1

ZFP SBS#1213 = target: T14, ZFP SBS#1213 (synthetic)
T14 chain: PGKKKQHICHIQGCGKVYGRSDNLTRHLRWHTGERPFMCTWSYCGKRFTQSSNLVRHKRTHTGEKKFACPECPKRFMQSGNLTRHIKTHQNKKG
Method in brief: as §1

ZFP SBS#1222 = target: T15, ZFP SBS#1222 (synthetic, UniProt P08047)
T15 chain: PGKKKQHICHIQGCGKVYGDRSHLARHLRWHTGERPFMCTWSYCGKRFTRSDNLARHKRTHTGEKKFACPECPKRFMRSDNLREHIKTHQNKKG
Method in brief: as §1

ZFP SBS#1127 = target: T16, ZFP SBS#1127 (synthetic)
T16 chain: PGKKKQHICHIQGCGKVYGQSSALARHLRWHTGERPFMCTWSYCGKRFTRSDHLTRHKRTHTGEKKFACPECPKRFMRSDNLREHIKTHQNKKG
Method in brief: as §1

ZFP SBS#1212 = target: T17, ZFP SBS#1212 (synthetic, UniProt P08047)
T17 chain: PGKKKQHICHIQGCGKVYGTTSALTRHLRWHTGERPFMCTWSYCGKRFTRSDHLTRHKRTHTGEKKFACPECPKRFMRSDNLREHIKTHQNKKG
Method in brief: as §1

ZFP SBS#487 = target: T18, ZFP SBS#487 (synthetic)
T18 chain: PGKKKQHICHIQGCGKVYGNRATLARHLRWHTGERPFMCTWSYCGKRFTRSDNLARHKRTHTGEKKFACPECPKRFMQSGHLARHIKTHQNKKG
Method in brief: as §1

ZFP SBS#485 = ZFP SBS#485 (synthetic)
Method in brief: as §1

ZFP SBS#1244 = ZFP SBS#1244 (synthetic)
Method in brief: as §1

ZFP SBS#1245 = target: T19, ZFP SBS#1245 (synthetic)
T19 chain: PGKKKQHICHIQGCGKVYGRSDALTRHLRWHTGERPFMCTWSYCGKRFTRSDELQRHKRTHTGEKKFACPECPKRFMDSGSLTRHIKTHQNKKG
Method in brief: as §1

ZFP SBS#1231 = target: T20, ZFP SBS#1231 (synthetic)
T20 chain: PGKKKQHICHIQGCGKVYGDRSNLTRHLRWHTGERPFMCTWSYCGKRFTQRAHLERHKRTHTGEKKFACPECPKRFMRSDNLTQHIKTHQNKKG
Method in brief: as §1

ZFP SBS#1230 = ZFP SBS#1230 (synthetic)
Method in brief: as §1

ZFP SBS#1240 = target: T21, ZFP SBS#1240 (synthetic, UniProt P08047)
T21 chain: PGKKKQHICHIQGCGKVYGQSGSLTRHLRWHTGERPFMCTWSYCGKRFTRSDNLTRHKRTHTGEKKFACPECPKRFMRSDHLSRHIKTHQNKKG
Method in brief: as §1

ZFP SBS#498 = ZFP SBS#498 (synthetic, UniProt P08047)
Method in brief: as §1

ZFP SBS#1217 = ZFP SBS#1217 (synthetic)
Method in brief: as §1

ZFP SBS#1150 = ZFP SBS#1150 (synthetic)
Method in brief: as §1

ZFP SBS#1221 = ZFP SBS#1221 (synthetic)
Method in brief: as §1

ZFP SBS#1219 = ZFP SBS#1219 (synthetic)
Method in brief: as §1

ZFP SBS#1220 = ZFP SBS#1220 (synthetic)
Method in brief: as §1

ZFP SBS#1227 = ZFP SBS#1227 (synthetic)
Method in brief: as §1

ZFP SBS#1238 = target: T22, ZFP SBS#1238 (synthetic)
T22 chain: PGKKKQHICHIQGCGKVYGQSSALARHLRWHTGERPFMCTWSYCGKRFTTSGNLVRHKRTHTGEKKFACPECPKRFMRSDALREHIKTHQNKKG
Method in brief: as §1

Chain of ZFP SBS#1218 (synthetic) (chain, as listed by the source): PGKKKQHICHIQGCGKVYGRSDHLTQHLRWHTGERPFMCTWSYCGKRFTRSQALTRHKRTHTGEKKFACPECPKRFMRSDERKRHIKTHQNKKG
Chain of ZFP SBS#498 (P08047 other isoform, or with tags, fused parts or gaps): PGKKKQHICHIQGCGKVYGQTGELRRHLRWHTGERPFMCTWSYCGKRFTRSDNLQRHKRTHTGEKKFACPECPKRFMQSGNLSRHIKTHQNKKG
Chain of ZFP SBS#1230 (synthetic) (chain, as listed by the source): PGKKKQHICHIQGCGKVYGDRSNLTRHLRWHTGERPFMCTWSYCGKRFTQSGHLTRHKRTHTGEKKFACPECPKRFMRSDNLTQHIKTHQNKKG
Chain of ZFP SBS#1221 (synthetic) (chain, as listed by the source): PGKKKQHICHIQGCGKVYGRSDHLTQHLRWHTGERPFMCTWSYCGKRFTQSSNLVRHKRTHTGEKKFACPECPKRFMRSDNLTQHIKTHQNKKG
Chain of ZFP SBS#938 (P08047 other isoform, or with tags, fused parts or gaps): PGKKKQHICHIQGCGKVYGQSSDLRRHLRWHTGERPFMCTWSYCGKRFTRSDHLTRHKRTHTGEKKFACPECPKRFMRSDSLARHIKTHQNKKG
Chain of ZFP SBS#937 (synthetic) (chain, as listed by the source): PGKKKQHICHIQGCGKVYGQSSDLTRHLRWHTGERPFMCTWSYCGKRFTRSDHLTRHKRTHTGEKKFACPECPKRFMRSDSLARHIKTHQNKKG
Chain of ZFP SBS#485 (synthetic) (chain, as listed by the source): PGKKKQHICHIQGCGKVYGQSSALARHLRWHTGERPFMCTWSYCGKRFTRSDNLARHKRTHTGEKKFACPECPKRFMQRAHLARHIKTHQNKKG
Chain of ZFP SBS#1217 (synthetic) (chain, as listed by the source): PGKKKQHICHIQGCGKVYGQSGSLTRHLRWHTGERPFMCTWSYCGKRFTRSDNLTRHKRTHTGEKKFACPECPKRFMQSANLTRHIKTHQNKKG
Chain of ZFP SBS#1215 (P08047 other isoform, or with tags, fused parts or gaps): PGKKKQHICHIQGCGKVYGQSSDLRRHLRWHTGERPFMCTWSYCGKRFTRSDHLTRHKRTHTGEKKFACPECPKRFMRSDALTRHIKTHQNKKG
Chain of ZFP SBS#1150 (synthetic) (chain, as listed by the source): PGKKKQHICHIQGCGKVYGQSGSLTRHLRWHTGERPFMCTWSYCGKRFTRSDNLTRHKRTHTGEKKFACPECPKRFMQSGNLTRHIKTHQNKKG
Chain of ZFP SBS#1219 (synthetic) (chain, as listed by the source): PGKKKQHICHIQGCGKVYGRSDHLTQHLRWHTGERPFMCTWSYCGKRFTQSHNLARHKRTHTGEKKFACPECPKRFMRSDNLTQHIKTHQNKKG
Chain of ZFP SBS#1220 (synthetic) (chain, as listed by the source): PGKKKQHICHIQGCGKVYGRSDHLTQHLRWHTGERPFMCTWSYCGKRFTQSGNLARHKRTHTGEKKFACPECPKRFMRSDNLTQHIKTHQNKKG
Chain of ZFP SBS#1140 (synthetic) (chain, as listed by the source): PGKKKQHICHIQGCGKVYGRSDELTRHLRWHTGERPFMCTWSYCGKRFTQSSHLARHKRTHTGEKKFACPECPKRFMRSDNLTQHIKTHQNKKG
Chain of ZFP SBS#1227 (synthetic) (chain, as listed by the source): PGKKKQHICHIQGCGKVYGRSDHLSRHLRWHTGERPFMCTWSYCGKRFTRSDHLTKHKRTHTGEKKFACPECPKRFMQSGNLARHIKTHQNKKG

B1: TGGGACCTG (dsDNA)
DNA 1: TGGGACCTG
DNA 2: CAGGTCCCA
- Kd (ZFP SBS#1233): 635 pM
- Kd (ZFP SBS#1232): 113 pM

B2: GGGGTTGAA (dsDNA)
DNA 1: GGGGTTGAA
DNA 2: TTCAACCCC
- Kd (ZFP SBS#1243): 101 pM
- Kd (ZFP SBS#1242): 20 pM

B3: GTGGGGGCT (dsDNA)
DNA 1: GTGGGGGCT
DNA 2: AGCCCCCAC
- Kd (ZFP SBS#1215): 3 pM
- Kd (ZFP SBS#937): 30 pM
- Kd (ZFP SBS#938): 49 pM

B4: AAGGGTGCG (dsDNA)
DNA 1: AAGGGTGCG
DNA 2: CGCACCCTT
- Kd (ZFP SBS#1140): 300 pM
- Kd (ZFP SBS#1229): 8200 pM

B5: ATGGGAGTT (dsDNA)
DNA 1: ATGGGAGTT
DNA 2: AACTCCCAT
- Kd (ZFP SBS#1101): 65 pM
- Kd (ZFP SBS#1214): 460 pM

B6: GCGGTGAGG (dsDNA)
DNA 1: GCGGTGAGG
DNA 2: CCTCACCGC
- Kd (ZFP SBS#1218): 460 pM

B7: ACGGCCGAG (dsDNA)
DNA 1: ACGGCCGAG
DNA 2: CTCGGCCGT
- Kd (ZFP SBS#1139): 535 pM
- Kd (ZFP SBS#1228): 12000 pM

B8: TGGTAGGGGG (dsDNA)
DNA 1: TGGTAGGGGG
DNA 2: CCCCCTACCA
- Kd (ZFP SBS#488): 35000 pM

B9: ATGGACTTG (dsDNA)
DNA 1: ATGGACTTG
DNA 2: CAAGTCCAT
- Kd (ZFP SBS#1141): 1700 pM
- Kd (ZFP SBS#1223): 7000 pM
- Kd (ZFP SBS#1224): 12000 pM

B10: GAAGAAGAG (dsDNA)
DNA 1: GAAGAAGAG
DNA 2: CTCTTCTTC
- Kd (ZFP SBS#1213): 12300 pM

B11: CAGGAGGGC (dsDNA)
DNA 1: CAGGAGGGC
DNA 2: GCCCTCCTG
- Kd (ZFP SBS#1222): 155 pM

B12: CAGGGGGTT (dsDNA)
DNA 1: CAGGGGGTT
DNA 2: AACCCCCTG
- Kd (ZFP SBS#1127): 100 pM
- Kd (ZFP SBS#1212): 50 pM

B13: GGAGAGGTTT (dsDNA)
DNA 1: GGAGAGGTTT
DNA 2: AAACCTCTCC
- Kd (ZFP SBS#487): 76900 pM
- Kd (ZFP SBS#485): 110000 pM

B14: GTCGCGGTG (dsDNA)
DNA 1: GTCGCGGTG
DNA 2: CACCGCGAC
- Kd (ZFP SBS#1244): 44 pM
- Kd (ZFP SBS#1245): 102 pM

B15: AAGGGAGAC (dsDNA)
DNA 1: AAGGGAGAC
DNA 2: GTCTCCCTT
- Kd (ZFP SBS#1231): 213 pM
- Kd (ZFP SBS#1230): 383 pM

B16: GGGGAGGCA (dsDNA)
DNA 1: GGGGAGGCA
DNA 2: TGCCTCCCC
- Kd (ZFP SBS#1240): 56 pM

B17: GAAGAGGCA (dsDNA)
DNA 1: GAAGAGGCA
DNA 2: TGCCTCTTC
- Kd (ZFP SBS#498): 30000 pM
- Kd (ZFP SBS#1217): 4 pM
- Kd (ZFP SBS#1150): 4 pM

B18: AAGGAAAGG (dsDNA)
DNA 1: AAGGAAAGG
DNA 2: CCTTTCCTT
- Kd (ZFP SBS#1221): 1400 pM
- Kd (ZFP SBS#1219): 680 pM
- Kd (ZFP SBS#1220): 175 pM

B19: GAATAGGGG (dsDNA)
DNA 1: GAATAGGGG
DNA 2: CCCCTATTC
- Kd (ZFP SBS#1227): 25000 pM

B20: CTGGATGTT (dsDNA)
DNA 1: CTGGATGTT
DNA 2: AACATCCAG
- Kd (ZFP SBS#1238): 313 pM
